Target: mouse LSR (mouse) (UniProt Q99KG5)
Experiment: cell-based or functional assay

Sequence of UniProt Q99KG5 (Q99KG5 36-594): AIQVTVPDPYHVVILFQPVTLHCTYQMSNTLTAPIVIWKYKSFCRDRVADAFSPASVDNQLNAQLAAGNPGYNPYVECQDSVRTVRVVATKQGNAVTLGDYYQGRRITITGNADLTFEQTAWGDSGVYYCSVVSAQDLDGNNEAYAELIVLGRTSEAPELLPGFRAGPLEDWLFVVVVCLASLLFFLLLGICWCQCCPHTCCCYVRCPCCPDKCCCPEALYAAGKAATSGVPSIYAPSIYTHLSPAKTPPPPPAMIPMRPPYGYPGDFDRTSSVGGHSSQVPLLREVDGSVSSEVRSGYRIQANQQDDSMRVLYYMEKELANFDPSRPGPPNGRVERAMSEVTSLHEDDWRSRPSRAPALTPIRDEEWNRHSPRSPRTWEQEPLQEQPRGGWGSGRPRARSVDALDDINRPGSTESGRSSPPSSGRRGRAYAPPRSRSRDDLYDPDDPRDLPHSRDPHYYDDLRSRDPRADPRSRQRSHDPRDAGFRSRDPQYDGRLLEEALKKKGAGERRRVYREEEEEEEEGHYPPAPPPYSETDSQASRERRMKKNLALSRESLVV

leptin uptake in a liver cell line (BPRCL), gOBG3 against OBG3: > 30%
Substance: 125I-mouse leptin (from UniProt P41160 22-167) (ligand)

Reference: EP1248849B1
